In the supplement of paper PMC10126150 one finds switch fluorescence ratio data, which are given here for 21 sequences.

± gives the standard deviation of the averaged measurements.
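Further: ATP exposure 15 min at 22 °C before imaging.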

For this data set, the system named is ATP. In words: switch fluorescence ratio, 500 uM ATP over buffer (Cy3 cluster intensity, sum of 5 cycles each) (fold (ratio)); higher = stronger signal-on switching upon ATP binding; sequences stand for … in TCGTCGGCAGCGTCAGATGTGTATAAGAGACAGTTTTTTTTTTTTTTTTTTTTTTTTT…TC. The conditions noted are these: aptamer strand: ATP DNA aptamer (quencher-CACCTGGGGGAGTATTGCGGAGGAAGG + anchor), 100 nM annealed; ATP concentration: 500 uM. The essentials: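 The quencher-labelled ATP aptamer, at 100 nM, was annealed to Cy3-labelled switching-strand clusters on a modified Illumina MiSeq flow-cell. The clusters were imaged in selection buffer, then after 15 min with 500 uM ATP at 22 °C, and this buffer/ATP cycle ran five times with NaOH stripping and re-annealing between runs. Per-cluster fluorescence ratios, summed target-cycle over summed buffer-cycle Cy3 intensity, were averaged per switch-domain sequence. Clusters outside 100-1000 RFU were excluded.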
With GGGGGCGTAC, the switch fluorescence ratio stood at 1.06 ± 0.083.

Take CAATTCAGTT: the switch fluorescence ratio stood at 0.991 ± 0.024.

Take AATCTGTCCT: the switch fluorescence ratio was 1.04 ± 0.027.

As for TATCGAGTCG, the switch fluorescence ratio turned out to be 0.997 ± 0.034.

Take CGTGGGGACT: the switch fluorescence ratio stood at 0.991 ± 0.027.

With TATGGCATCG, the switch fluorescence ratio came to 0.99 ± 0.014.

For TTCAGGGGGA, the switch fluorescence ratio came out at 1.02 ± 0.023.

As for ATAGAGGCTG, the switch fluorescence ratio amounted to 1.04 ± 0.064.

With TATGTAGAAG, the switch fluorescence ratio is 1 ± 0.027.

Take TCAATCGTTG: the switch fluorescence ratio is 1.05 ± 0.016.

As for TTTCTGTTGT, the switch fluorescence ratio is 1.14 ± 0.16.

On to GGGGATAGAG, for which the switch fluorescence ratio is 1.01 ± 0.015.

As for GGGTGATCGG, the switch fluorescence ratio is 0.984 ± 0.023.

In the case of GGGGGCGTTT, the switch fluorescence ratio was found to be 1.01 ± 0.045.

Consider TAGTAATGTT, for which the switch fluorescence ratio came out at 0.982 ± 0.025.

Take CGTGGGGCGA: the switch fluorescence ratio was found to be 1.03 ± 0.025.

AAGGATGCAT: the switch fluorescence ratio is 1.03 ± 0.038.

Consider TCTTAATGTA, for which the switch fluorescence ratio came out at 0.985 ± 0.015.

Consider GGAAATAAAA, for which the switch fluorescence ratio came to 1.22 ± 0.24.

With AGGATTATTG, the switch fluorescence ratio was determined as 0.991 ± 0.017.

Turning to TGGTTGTTAT, the switch fluorescence ratio was 1.008 ± 0.0058.
